Assay results reported in article PMC4980298 (Molecular microbiology, 2016).

Target: T1, FimL fused to T18 or T25 (BACTH) (P. aeruginosa PAO1, UniProt Q9I2S3 1-562)
T1 sequence: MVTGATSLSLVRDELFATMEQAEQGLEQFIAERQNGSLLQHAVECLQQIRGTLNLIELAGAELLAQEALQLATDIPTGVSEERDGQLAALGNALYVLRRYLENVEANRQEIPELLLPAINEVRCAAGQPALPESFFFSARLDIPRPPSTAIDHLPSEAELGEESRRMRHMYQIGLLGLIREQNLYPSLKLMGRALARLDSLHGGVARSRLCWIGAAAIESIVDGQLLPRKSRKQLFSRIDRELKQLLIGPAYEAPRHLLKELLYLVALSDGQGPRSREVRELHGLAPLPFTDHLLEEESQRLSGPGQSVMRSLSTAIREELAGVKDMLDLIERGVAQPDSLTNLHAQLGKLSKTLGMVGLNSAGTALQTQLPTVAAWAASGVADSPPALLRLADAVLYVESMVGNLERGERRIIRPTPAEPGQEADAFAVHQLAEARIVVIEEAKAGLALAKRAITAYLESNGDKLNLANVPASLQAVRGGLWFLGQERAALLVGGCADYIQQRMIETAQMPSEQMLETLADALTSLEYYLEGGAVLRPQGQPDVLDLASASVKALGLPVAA
Experiment: two-hybrid

B1: PilG fused to T18 or T25 (BACTH) (natural protein)
chain: MEQQSDGLKVMVIDDSKTIRRTAETLLKKVGCDVITAIDGFDALAKIADTHPNIIFVDIMMPRLDGYQTCALIKNNSAFKSTPVIMLSSKDGLFDKAKGRIVGSDQYLTKPFSKEELLGAIKAHVPSFTPVDAVS
- fold increase in β-galactosidase activity over controls: ~20 fold
